According to publication PMC11480844:

B1: H2-Kb / G6 (parent)
chain 1: AQSVTQPDARVTVSEGASLQLRCKYSYFGTPYLFWYVQYPRQGLQLLLKYYPGDPVVQGVNGFEAEFSKSNSSFHLRKASVHWSDWAVYFCAVTPGGSNAKLTFGKGTKLSVKS
chain 2: NSGVVQSPRYIIKGKGERSILKCIPISGHLSVAWYQQTQGQELKFFIQHYDKMERDKGNLPSRFSVQQFDDYHSEMNMSALELEDSAVYFCASSRQGGDNNQAPLFGEGTRLSVL
chain 3: not shown
chain 4: IQKTPQIQVYSRHPPENGKPNILNCYVTQFHPPHIEIQMLKNGKKIPKVEMSDMSFSKDWSFYILAHTEFTPTETDTYACRVKHDSMAEPKTVYWDRDM
chain 5: SIINFEKL
B2: H2-Kb / B7 (parent)
chain 1: GQQVQQSPTSLVLQEGENAELQCNFSTSLNSMQWFYQRPGGSLVSVFYNPSGTKQSGRLTSTTVIKERRSSLHISSSQITDSGTYLCAMERDMGYKLTFGTGTSLLVDP
chain 2: EAAVTQSPRNKVAVTGGKVTLSCNQTNNHNNMYWYRQDTGHGLRLIHYSYGAGSTEKGDIPDGYKASRPSQENFSLILELATPSQTSVYFCASGDPGDQDTQYFGPGTRLLVL
chain 3: not shown
chain 4: B1 chain 4
chain 5: SIINFEKL
B3: H2-Kb / E4 (parent)
chain 1: AQSVTQPDARVTVSEGASLQLRCKYSYSGTPYLFWYVQYPRQGLQLLLKYYSGDPVVQGVNGFEAEFIKSNSSFHLRKASVHWSDSAVYFCAVSAGQGGSAKLIFGEGTKLTVSS
chain 2: GGIITQTPKFLIGQEGQKLTLKCQQNFNHDTMYWYRQDSGKGLRLIYYSITENDLQKGDLSEGYDASREKKSSFSLTVTSAQKNEMAVFLCASSIWGDSYEQYFGPGTRLTVL
chain 3: not shown
chain 4: B1 chain 4
chain 5: SIINFEKL

Variants of: B1
Test: % of reporter cells activated (NFAT-GFP), raw
Settings: with G6; scale: % of reporter cells activated
Also: test concentration or dose not given here.

Ratio to parent of substitutions, site by site:
chain 5 E6: A 0.724, C 0.21, D 2.75, F 0.914, G 0.506, H 0.494, I 0.321, K 0.226, L 0.193, M 0.551, N 0.63, P 0.189, Q 0.292, R 0.259, S 0.428, T 0.362, V 0.222, W 7.22, Y 0.778
chain 5 F5: A 0.383, C 0.609, D 0.313, E 0.424, G 0.198, H 0.395, I 0.263, K 0.284, L 0.959, M 1.34, N 0.3, P 0.272, Q 2.04, R 0.247, S 0.362, T 0.177, V 0.116, W 0.263, Y 0.576
chain 5 I2: A 0.305, C 0.239, D 0.412, E 0.453, F 0.226, G 0.288, H 0.259, K 0.551, L 0.247, M 0.214, N 0.321, P 0.329, Q 0.255, R 0.16, S 0.115, T 0.305, V 0.292, W 0.185, Y 0.284
chain 5 I3: A 0.333, C 0.292, D 0.239, E 0.395, F 0.523, G 0.226, H 0.288, K 0.276, L 0.926, M 0.465, N 0.181, P 0.206, Q 0.193, R 0.109, S 0.181, T 0.284, V 1.18, W 0.276, Y 0.272
chain 5 K7: A 1.4, C 0.272, D 0.202, E 0.276, F 0.189, G 6.68, H 0.292, I 0.358, L 0.259, M 0.379, N 0.412, P 0.346, Q 0.267, R 14.4, S 0.963, T 0.16, V 0.235, W 0.963, Y 0.235
chain 5 L8: A 0.206, C 0.251, D 0.152, E 0.173, F 0.218, G 0.457, H 7.85, I 0.819, K 0.292, M 0.267, N 0.148, P 0.206, Q 0.165, R 0.617, S 0.086, T 0.354, V 0.56, W 1.92, Y 2.09
chain 5 N4: A 0.251, C 0.177, D 0.267, E 0.177, F 0.202, G 0.239, H 0.276, I 0.272, K 0.42, L 0.284, M 0.173, P 0.198, Q 0.128, R 0.255, S 0.193, T 0.235, V 0.193, W 0.148, Y 0.14
chain 5 S1: A 0.65, C 0.502, D 0.395, E 0.239, F 0.449, G 0.235, H 0.218, I 0.909, K 2.47, L 3.02, M 0.284, N 0.239, P 1.48, Q 0.42, R 1.64, T 0.222, V 1.09, W 0.362, Y 0.156

Variants of: B2
Test: % of reporter cells activated (NFAT-GFP), raw
Settings: with B7; scale: % of reporter cells activated

Ratio to parent: each site, then its substitutions
chain 5 E6: A 1.17, C 1.46, D 1.43, F 1.52, G 1.45, H 1.65, I 1.14, K 1.32, L 1, M 0.985, N 1.2, P 1.25, Q 0.754, R 1.46, S 1.38, T 1.63, V 1.02, W 1.09, Y 0.969
chain 5 F5: A 1.62, C 1.97, D 1.55, E 1.49, G 1.03, H 1.34, I 0.938, K 1.74, L 1.46, M 1.68, N 1.31, P 1.74, Q 1.25, R 0.923, S 0.831, T 1.05, V 0.615, W 1.55, Y 1.2
chain 5 I2: A 1.58, C 1.11, D 1.45, E 1.35, F 1.05, G 1.85, H 1.83, K 1.51, L 1.62, M 1.65, N 2.11, P 1.72, Q 1.25, R 0.846, S 1.45, T 1.85, V 1.43, W 1.46, Y 1.48
chain 5 I3: A 1.68, C 1.58, D 1.11, E 1.32, F 1.02, G 1.86, H 1.68, K 1.75, L 1.4, M 1.29, N 1.62, P 1.45, Q 1.65, R 0.862, S 0.646, T 1.48, V 1.17, W 1.48, Y 1.2
chain 5 K7: A 1.17, C 1.05, D 1.02, E 1.14, F 0.846, G 0.738, H 1.66, I 1.25, L 1.32, M 0.908, N 0.954, P 1.48, Q 0.815, R 0.358, S 1.18, T 1.02, V 1.17, W 0.769, Y 1.18
chain 5 L8: A 0.862, C 1.4, D 0.615, E 0.326, F 0.677, G 1.42, H 1.23, I 0.831, K 0.785, M 0.892, N 1, P 1.11, Q 0.938, R 1.69, S 0.6, T 0.646, V 0.585, W 0.585, Y 0.769
chain 5 N4: A 1.31, C 0.908, D 1.69, E 1.35, F 1.26, G 1.15, H 1.49, I 1.43, K 1.45, L 1.82, M 1.38, P 0.877, Q 1.08, R 1, S 1.11, T 1.12, V 0.985, W 1.28, Y 1.03
chain 5 S1: A 1.63, C 1.8, D 1.55, E 1.29, F 0.831, G 1.57, H 1.45, I 0.969, K 1.4, L 1.03, M 1.42, N 0.862, P 1.74, Q 2.08, R 1, T 1.62, V 1.8, W 1.77, Y 1.37

Variants of: B3
Test: % of reporter cells activated (NFAT-GFP), raw
Settings: with E4

Ratio to parent, by site and new letter:
chain 5 E6: A 0.635, C 0.651, D 1.05, F 0.698, G 0.746, H 1.21, I 0.873, K 0.873, L 0.381, M 0.54, N 0.619, P 0.46, Q 0.778, R 0.81, S 0.952, T 0.841, V 1.05, W 0.635, Y 1.08
chain 5 F5: A 1.1, C 1.63, D 1.32, E 0.429, G 0.46, H 0.825, I 0.746, K 0.825, L 0.698, M 0.629, N 0.635
